The text below walks through data of PMC4144951, “Dissecting the Functional Role of the N-Terminal Domain of the Human Small Heat Shock Protein HSPB6” (PLoS ONE, 2014).

Broadly, the stoichiometry N is the number of molecules, sites or subunits per partner or assembly.

Positions count from the first letter of the chain named. In names and notes the source's numbering stands.

In one data set the target is HSPB6 Δ31–40 (human) (UniProt O14558). Put plainly: SEC-coupled SAXS; inline HPLC, Shodex KW404-4F, 20°C, 20 mM HEPES, 150 mM NaCl, pH 7.4, 2.5 mM DTT; 75 µl of 5 mg/ml HSPB6 or equivalent molarity loaded (ΔN11: 111 µl of 3.37 mg/ml); mass at the peak maximum from I0 and Porod volume; number of subunits of the oligomer.
Data set [1] concerns the target HSPB6 Δ31–35 (human) (UniProt O14558). Kind of data set: SEC; data not shown; three loaded concentrations, no larger oligomeric species seen; size of the oligomer (dimer). (SEC sorts molecules by how far they enter the pores of the column.)
For data set [2] the target is unchanged. Put plainly: SEC-coupled SAXS; inline HPLC, Shodex KW404-4F, 20°C, 20 mM HEPES, 150 mM NaCl, pH 7.4, 2.5 mM DTT; 75 µl of 5 mg/ml HSPB6 or equivalent molarity loaded (ΔN11: 111 µl of 3.37 mg/ml); mass at the peak maximum from I0 and Porod volume; number of subunits of the oligomer.
Data set [3] deals with the molecule itself. Kind of data set: SEC; data not shown; three loaded concentrations, no larger oligomeric species seen; size of the oligomer (dimer).
Data set [4] concerns the molecule itself. Put plainly: SEC; 100 µl at 2.5, 5 and 10 mg/ml on Superdex 200 10/300 GL, 4°C, 25 mM HEPES pH 7.5, 150 mM NaCl, 2.5 mM DTT; apparent MW from column calibration; the shift of the peak with loaded concentration is read as self-association of the dimers with each other (dimer to higher species).
The target of data set [5] is human recombinant insulin (human, UniProt P01308 25-54; P01308 90-110). Kind of data set: cell-based or functional assay.
Data set [6] deals with the molecule itself. Put plainly: SEC-coupled SAXS; inline HPLC, Shodex KW404-4F, 20°C, 20 mM HEPES, 150 mM NaCl, pH 7.4, 2.5 mM DTT; 75 µl of 5 mg/ml HSPB6 or equivalent molarity loaded (ΔN11: 111 µl of 3.37 mg/ml); mass at the peak maximum from I0 and Porod volume; number of subunits of the oligomer.
In data set [7] the target is T1, human HSPB6, wild type, full length (human), O14558.
T1 chain: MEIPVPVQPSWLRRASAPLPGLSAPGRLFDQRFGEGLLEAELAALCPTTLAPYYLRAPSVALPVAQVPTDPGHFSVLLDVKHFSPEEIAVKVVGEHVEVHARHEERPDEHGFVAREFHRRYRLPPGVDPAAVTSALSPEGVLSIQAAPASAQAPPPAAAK
Kind of data set: SEC; 100 µl at 2.5, 5 and 10 mg/ml on Superdex 200 10/300 GL, 4°C, 25 mM HEPES pH 7.5, 150 mM NaCl, 2.5 mM DTT; apparent MW from column calibration; the shift of the peak with loaded concentration is read as self-association of the dimers with each other (dimer to higher species). The settings on record: remark: other sources report otherwise.

Data set [8] has as its target T1, human HSPB6, wild type, full length …. Kind of data set: SEC; data not shown; three loaded concentrations, no larger oligomeric species seen; size of the oligomer (dimer). To be noted: remark: other sources report otherwise.
For data set [9] the target is unchanged. Put plainly: SEC-coupled SAXS; inline HPLC, Shodex KW404-4F, 20°C, 20 mM HEPES, 150 mM NaCl, pH 7.4, 2.5 mM DTT; 75 µl of 5 mg/ml HSPB6 or equivalent molarity loaded (ΔN11: 111 µl of 3.37 mg/ml); mass at the peak maximum from I0 and Porod volume; number of subunits of the oligomer. To be noted: remark: other sources report otherwise.
Data set [10] deals with the molecule itself. Put plainly: SEC; 100 µl at 2.5, 5 and 10 mg/ml on Superdex 200 10/300 GL, 4°C, 25 mM HEPES pH 7.5, 150 mM NaCl, 2.5 mM DTT; apparent MW from column calibration; the shift of the peak with loaded concentration is read as self-association of the dimers with each other (dimer to higher species). This is another data set of the same source.

human recombinant insulin, sequence (P01308 25-54, chain 1 of 2): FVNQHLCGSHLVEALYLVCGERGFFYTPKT
human recombinant insulin, sequence (P01308 90-110, chain 2 of 2): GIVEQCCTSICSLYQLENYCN

“HSPB6 Δ31–40 (from UniProt O14558 1-160) (natural protein)”: in the data set with HSPB6 Δ31–40 (human), the stoichiometry N came to 2 subunits.
“HSPB6 Δ31–35 (from UniProt O14558 1-160) (natural protein)”: the stoichiometry N with HSPB6 Δ31–35 (human) [1] stood at 2; with HSPB6 Δ31–35 (human) [2] it was 2.2 subunits.

B1: HSPB6 Δ36–40 (natural protein, human, UniProt O14558 1-160, looked up)
chain: MEIPVPVQPSWLRRASAPLPGLSAPGRLFDQRFGEELAALCPTTLAPYYLRAPSVALPVAQVPTDPGHFSVLLDVKHFSPEEIAVKVVGEHVEVHARHEERPDEHGFVAREFHRRYRLPPGVDPAAVTSALSPEGVLSIQAAPASAQAPPPAAAK
notes: HSPB6, human, full-length protein with residues 36-40 deleted; source: E. coli NiCo21 (DE3) with pRARE2, purified (subtractive IMAC, anion exchange, SEC); not shown: SUMO, N-terminal, cleaved
On to B1, for which, in [3], the “stoichiometry N” value stood at 2. For the same molecule, the “concentration dependence of apparent MW” value in data set [4] was 1.8 kDa/(mg/ml).

B2: HSPB6 Δ11–20 (natural protein, human, UniProt O14558 1-160, looked up)
chain: MEIPVPVQPSGLSAPGRLFDQRFGEGLLEAELAALCPTTLAPYYLRAPSVALPVAQVPTDPGHFSVLLDVKHFSPEEIAVKVVGEHVEVHARHEERPDEHGFVAREFHRRYRLPPGVDPAAVTSALSPEGVLSIQAAPASAQAPPPAAAK
notes: HSPB6, human, full-length protein with residues 11-20 deleted; also called ΔN11–20; source: E. coli NiCo21 (DE3) with pRARE2, purified (subtractive IMAC, anion exchange, SEC); not shown: SUMO, N-terminal, cleaved
As for B2, the “percentage protection against DTT-induced aggregation of insulin (A340 after 90 min, 37°C), insulin:sHSP 1:0.2 to 1:0.05” value (“percentage protection” for short) in [5] is roughly 50 % decrease. The “concentration dependence of apparent MW” value in [4] is 0.81 kDa/(mg/ml). In addition, the “stoichiometry N” value in data set [6] was 1.8 subunits.

B3: HSPB6 Δ41–50 (natural protein, human, UniProt O14558 1-160, looked up)
chain: MEIPVPVQPSWLRRASAPLPGLSAPGRLFDQRFGEGLLEAAPYYLRAPSVALPVAQVPTDPGHFSVLLDVKHFSPEEIAVKVVGEHVEVHARHEERPDEHGFVAREFHRRYRLPPGVDPAAVTSALSPEGVLSIQAAPASAQAPPPAAAK
notes: HSPB6, human, full-length protein with residues 41-50 deleted; source: E. coli NiCo21 (DE3) with pRARE2, purified (subtractive IMAC, anion exchange, SEC); not shown: SUMO, N-terminal, cleaved
In the case of B3, in data set [5], the “percentage protection” value was roughly 50 % decrease. Besides, in data set [4], the “concentration dependence of apparent MW” value was 1.92 kDa/(mg/ml). In addition, the “stoichiometry N” value in data set [6] worked out at 2.3 subunits.

B4: HSPB6 Δ21–30 (natural protein, human, UniProt O14558 1-160, looked up)
chain: B2 chain with G11W, S13R, A14R, P15A, G16S, R17A, L18P, F19L, D20P
notes: HSPB6, human, full-length protein with residues 21-30 deleted; source: E. coli NiCo21 (DE3) with pRARE2, purified (subtractive IMAC, anion exchange, SEC); not shown: SUMO, N-terminal, cleaved
B4: the “percentage protection” value in data set [5] is roughly 50 % decrease. The “concentration dependence of apparent MW” value in [4] is 1.29 kDa/(mg/ml). Also, the “stoichiometry N” value in data set [6] stood at 2.2 subunits.

B5: HSPB6 ΔN11 (domain or fragment, human, UniProt O14558 12-160, looked up)
chain: LRRASAPLPGLSAPGRLFDQRFGEGLLEAELAALCPTTLAPYYLRAPSVALPVAQVPTDPGHFSVLLDVKHFSPEEIAVKVVGEHVEVHARHEERPDEHGFVAREFHRRYRLPPGVDPAAVTSALSPEGVLSIQAAPASAQAPPPAAAK
notes: HSPB6, human, without its first 11 residues (ΔN10 begins with the sole tryptophan; ΔN11 removes it too); Prone to aggregate; could not be concentrated above about 4-5 mg/ml; also called ΔN11-construct; source: E. coli NiCo21 (DE3) with pRARE2, purified (subtractive IMAC, anion exchange, SEC); not shown: SUMO, N-terminal, cleaved
B5: the “stoichiometry N” value in [6] was determined as 2.5 subunits.

B6: human HSPB6, wild type, full length, O14558 1-160 (natural protein)
chain: T1 chain
In the case of B6, in data set [7], the concentration dependence of apparent MW is 1.51 kDa/(mg/ml). In addition, the stoichiometry N in data set [8] is 2; in data set [9], 2.2 subunits.

B7: HSPB6 F33Y (natural protein, human, UniProt O14558 1-160, looked up)
chain: T1 chain with F33Y
notes: HSPB6, human, full-length protein with the point mutation F33Y; source: E. coli NiCo21 (DE3) with pRARE2, purified (subtractive IMAC, anion exchange, SEC); not shown: SUMO, N-terminal, cleaved
Take B7: the “stoichiometry N” value in [6] was 1.9 subunits.

B8: HSPB6 Q31A (natural protein, human, UniProt O14558 1-160, looked up)
chain: T1 chain with Q31A
notes: HSPB6, human, full-length protein with the point mutation Q31A; Mixture of dimers and what appear to be tetramers; source: E. coli NiCo21 (DE3) with pRARE2, purified (subtractive IMAC, anion exchange, SEC); not shown: SUMO, N-terminal, cleaved
For the molecule B8, the “concentration dependence of apparent MW” value in [4] was 1.1 kDa/(mg/ml). Besides, the “stoichiometry N” value in data set [6] is 4.2 subunits; in data set [10], roughly 4.

B9: HSPB6 Q31L (natural protein, human, UniProt O14558 1-160, looked up)
chain: T1 chain with Q31L
notes: HSPB6, human, full-length protein with the point mutation Q31L; source: E. coli NiCo21 (DE3) with pRARE2, purified (subtractive IMAC, anion exchange, SEC); not shown: SUMO, N-terminal, cleaved
For B9, the “concentration dependence of apparent MW” value in data set [4] was 1.87 kDa/(mg/ml). Moreover, the “stoichiometry N” value in [6] is 4.3 subunits.

B10: HSPB6 F33A (natural protein, human, UniProt O14558 1-160, looked up)
chain: T1 chain with F33A
notes: HSPB6, human, full-length protein with the point mutation F33A; source: E. coli NiCo21 (DE3) with pRARE2, purified (subtractive IMAC, anion exchange, SEC); not shown: SUMO, N-terminal, cleaved
Regarding B10, the “stoichiometry N” value in [6] came out at 2.3 subunits.

B11: HSPB6 Δ51–60 (natural protein, human, UniProt O14558 1-160, looked up)
chain: B3 chain with A41E, P42L, Y43A, Y44A, R46C, A47P, P48T, S49T, V50L
notes: HSPB6, human, full-length protein with residues 51-60 deleted; source: E. coli NiCo21 (DE3) with pRARE2, purified (subtractive IMAC, anion exchange, SEC); not shown: SUMO, N-terminal, cleaved
As for B11, the “percentage protection” value in data set [5] is roughly 50 % decrease. The “concentration dependence of apparent MW” value in data set [4] is 0.31 kDa/(mg/ml). Also, in [6], the “stoichiometry N” value came to 1.9 subunits.

B12: HSPB6 Δ61–70 (natural protein, human, UniProt O14558 1-160, looked up)
chain: MEIPVPVQPSWLRRASAPLPGLSAPGRLFDQRFGEGLLEAELAALCPTTLAPYYLRAPSVPGHFSVLLDVKHFSPEEIAVKVVGEHVEVHARHEERPDEHGFVAREFHRRYRLPPGVDPAAVTSALSPEGVLSIQAAPASAQAPPPAAAK
notes: HSPB6, human, full-length protein with residues 61-70 deleted; By SAXS closer to a tetramer than to a dimer; source: E. coli NiCo21 (DE3) with pRARE2, purified (subtractive IMAC, anion exchange, SEC); not shown: SUMO, N-terminal, cleaved
B12: in [4], the “concentration dependence of apparent MW” value is 3.4 kDa/(mg/ml). For the same molecule, the “stoichiometry N” value in [6] is 3.5 subunits.
